The values that follow come from patent publication US20150174289A1 (OMRIX BIOPHARMACEUTICALS, published 2015).

The target in this assay is T1, fibrin monomers (UniProt P02671 36-629; P02675 45-491; P02679 27-437).
T1 sequence (looked up) 1: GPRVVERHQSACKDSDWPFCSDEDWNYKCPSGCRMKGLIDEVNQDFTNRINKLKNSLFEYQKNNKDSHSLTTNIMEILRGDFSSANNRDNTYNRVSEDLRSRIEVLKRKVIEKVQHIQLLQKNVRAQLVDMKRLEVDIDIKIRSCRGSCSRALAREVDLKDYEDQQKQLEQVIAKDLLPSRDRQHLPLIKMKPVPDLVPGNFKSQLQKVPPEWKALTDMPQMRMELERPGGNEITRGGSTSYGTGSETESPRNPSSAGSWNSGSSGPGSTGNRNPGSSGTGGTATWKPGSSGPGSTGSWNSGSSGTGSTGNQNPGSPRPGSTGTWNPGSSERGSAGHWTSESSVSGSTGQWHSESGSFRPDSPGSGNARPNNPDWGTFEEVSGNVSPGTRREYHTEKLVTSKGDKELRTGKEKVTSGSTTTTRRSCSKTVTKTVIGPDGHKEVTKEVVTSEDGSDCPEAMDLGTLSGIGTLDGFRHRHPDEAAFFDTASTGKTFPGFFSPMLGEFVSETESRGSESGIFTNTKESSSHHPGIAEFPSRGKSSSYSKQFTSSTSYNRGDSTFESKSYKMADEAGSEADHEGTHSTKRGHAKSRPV
T1 sequence (looked up) 2: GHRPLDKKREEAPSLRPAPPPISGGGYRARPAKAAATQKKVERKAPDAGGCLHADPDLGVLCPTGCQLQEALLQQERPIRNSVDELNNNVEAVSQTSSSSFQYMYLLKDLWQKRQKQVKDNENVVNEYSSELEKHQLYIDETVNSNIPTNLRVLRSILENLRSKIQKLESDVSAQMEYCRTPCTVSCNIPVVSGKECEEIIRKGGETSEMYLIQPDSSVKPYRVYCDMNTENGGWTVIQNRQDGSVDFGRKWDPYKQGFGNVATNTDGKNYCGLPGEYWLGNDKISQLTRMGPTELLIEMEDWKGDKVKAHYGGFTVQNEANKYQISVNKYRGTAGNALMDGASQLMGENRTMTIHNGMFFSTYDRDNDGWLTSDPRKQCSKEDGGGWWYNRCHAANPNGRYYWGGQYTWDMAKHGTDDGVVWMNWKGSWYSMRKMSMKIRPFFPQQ
T1 sequence (looked up) 3: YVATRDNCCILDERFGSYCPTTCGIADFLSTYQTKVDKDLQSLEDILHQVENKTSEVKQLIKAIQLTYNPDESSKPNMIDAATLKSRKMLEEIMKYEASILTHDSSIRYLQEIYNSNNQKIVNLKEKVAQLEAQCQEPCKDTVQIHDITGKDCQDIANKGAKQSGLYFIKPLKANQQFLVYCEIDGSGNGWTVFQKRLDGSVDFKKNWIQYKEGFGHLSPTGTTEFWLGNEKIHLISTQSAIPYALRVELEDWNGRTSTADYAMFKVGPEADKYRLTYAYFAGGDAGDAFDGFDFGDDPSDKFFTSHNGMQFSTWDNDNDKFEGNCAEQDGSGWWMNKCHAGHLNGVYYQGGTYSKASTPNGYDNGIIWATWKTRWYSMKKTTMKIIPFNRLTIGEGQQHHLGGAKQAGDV
Briefly: cell-based or functional assay.

B1: GPRP peptide (Gly-Pro-Arg-Pro) (peptide)
peptide: GPRP
For the molecule B1, the “Time to clot (1% fibrin monomers, 1 mM GPRP, 34 fold GPRP:fibrin)” value was below 5 min; the “Time to clot (1% fibrin monomers, 5 mM GPRP, 170 fold GPRP:fibrin)” value was found to be 4 h; the “Time to clot (1.5% fibrin monomers, 20 mM GPRP, 453 fold GPRP:fibrin)” value is above 2 weeks; the “Time to clot (3% fibrin monomers, 0.1 mM GPRP, 1.1 fold GPRP:fibrin)” value amounted to 5 s. The “Time to clot (3% fibrin monomers, 0.2 mM GPRP, 2.3 fold GPRP:fibrin)” value stood at 7 s; the “Time to clot (3% fibrin monomers, 0.5 mM GPRP, 5.7 fold GPRP:fibrin)” value was found to be 11 s; the “Time to clot (3% fibrin monomers, 1 mM GPRP, 11.3 fold GPRP:fibrin)” value stood at 13 s; the “Time to clot (3% fibrin monomers, 1.5 mM GPRP, 17 fold GPRP:fibrin)” value is 22 s. Besides, the “Time to clot (3% fibrin monomers, 2 mM GPRP, 22.7 fold GPRP:fibrin)” value came to 28 s; the “Time to clot (3% fibrin monomers, 3 mM GPRP, 34 fold GPRP:fibrin)” value was determined as 2.5 min; the “Time to clot (3% fibrin monomers, 4 mM GPRP, 45 fold GPRP:fibrin)” value came to 8 min; the “Time to clot (3% fibrin monomers, 5 mM GPRP, 56.7 fold GPRP:fibrin)” value was 15 min. In addition, the “Time to clot (3.5% fibrin monomers, 40 mM GPRP, 389 fold GPRP:fibrin)” value is above 2 weeks.
